These are literature values, as cited in paper PMC8727504.

What is called Kd is the concentration at which binding is half-saturated.

This data set concerns the target sMMOH (Methylosinus trichosporium) (UniProt P27353). Put plainly: competition.

MMOB (from UniProt P27356): the Kd was less than 100 nM.
